# Measured values reported in US20110008345A1 (GlaxoSmithKline, published 2011).
# Where a chain is given by its changes, count along the chain named. Values joined by “and” are separate entries in the source; they are usually repeats but may differ in a detail not shown here. Equal entries are not always repeated.
# B1: 586H-TVAAPS-210 (bispecific antibody, human IgG1, kappa)
# heavy: not shown
# light: DIVMTQSPLSLPVTPGEPASISCRSSQNIVHINGNTYLEWYLQKPGQSPRLLIYKISDRFSGVPDRFSGSGSGTDFTLKISRVEADDVGIYYCFQGSHVPWTFGQGTKLEIKRTVAAPSVFIFPPSDEQLKSGTASVVCLLNNFYPREAKVQWKVDNALQSGNSQESVTEQDSKDSTYSLSSTLTLSKADYEKHKVYACEVTHQGLSSPVTKSFNRGEC
# B2: 586H-TVAAPS-210 GS removed (bispecific antibody, human IgG1, kappa)
# heavy: not shown
# light: B1 light
# notes: also called BPC1602
# B3: 586H-ELQLE-147 (bispecific antibody, human IgG1, kappa)
# heavy: not shown
# light: B1 light
# B4: 586H-TVAAPS-25 (bispecific antibody, human IgG1, kappa)
# heavy: not shown
# light: B1 light
# B5: 586H-ELQLE-154 (bispecific antibody, human IgG1, kappa)
# heavy: not shown
# light: B1 light
# B6: 586H-ELQLE-25 (bispecific antibody, human IgG1, kappa)
# heavy: not shown
# light: B1 light
# B7: BPC1617 (bispecific antibody, human IgG2, kappa)
# heavy: QVTLRESGPALVKPTQTLTLTCTFSGFSLSTSGMGVSWIRQPPGKGLEWLAHIYWDDDKRYNPSLKSRLTISKDTSRNQVVLTMTNMDPVDTATYYCARRETVFYWYFDVWGRGTLVTVSSASTKGPSVFPLAPCSRSTSESTAALGCLVKDYFPEPVTVSWNSGALTSGVHTFPAVLQSSGLYSLSSVVTVPSSNFGTQTYTCNVDHKPSNTKVDKTVERKCCVECPPCPAPPVAGPSVFLFPPKPKDTLMISRTPEVTCVVVDVSHEDPEVQFNWYVDGVEVHNAKTKPREEQFNSTFRVVSVLTVVHQDWLNGKEYKCKVSNKGLPAPIEKTISKTKGQPREPQVYTLPPSREEMTKNQVSLTCLVKGFYPSDIAVEWESNGQPENNYKTTPPMLDSDGSFFLYSKLTVDKSRWQQGNVFSCSVMHEALHNHYTQKSLSLSPGKGSGVQLLESGGGLVQPGGSLRLSCAASGFTFAWYDMGWVRQAPGKGLEWVSSIDWHGEVTYYADSVKGRFTISRDNSKNTLYLQMNSLRAEDTAVYYCATAEDEPGYDYWGQGTLVTVSS
# light: DIVLTQSPSSLSASVGDRVTITCKASQSVDYDGDSYMNWYQQKPGKAPKLLIYAASNLESGIPSRFSGSGSGTDFTFTISSLQPEDIATYYCQQSNEDPPTFGQGTKVEIKRTVAAPSVFIFPPSDEQLKSGTASVVCLLNNFYPREAKVQWKVDNALQSGNSQESVTEQDSKDSTYSLSSTLTLSKADYEKHKVYACEVTHQGLSSPVTKSFNRGEC
# B8: BPC1404 (bispecific antibody, human IgG1, kappa)
# heavy: not shown
# light: QIVLSQSPAILSASPGEKVTMTCRASSSVSYIHWFQQKPGSSPKPWIYATSNLASGVPVRFSGSGSGTSYSLTISRVEAEDAATYYCQQWTSNPPTFGGGTKLEIKRTVAAPSVFIFPPSDEQLKSGTASVVCLLNNFYPREAKVQWKVDNALQSGNSQESVTEQDSKDSTYSLSSTLTLSKADYEKHKVYACEVTHQGLSSPVTKSFNRGECGSGVQLLESGGGLVQPGGSLRLSCAASGFTFAWYDMGWVRQAPGKGLEWVSSIDWHGEVTYYADSVKGRFTISRDNSKNTLYLQMNSLRAEDTAVYYCATAEDEPGYDYWGQGTLVTVSS
# notes: also called RituxanL-GS-DOM474
# B9: BPC1801 (bispecific antibody, human IgG1, kappa)
# heavy: not shown
# light: DIVMTQSPLSLPVTPGEPASISCRSSQSIVQSNGDTYLEWYLQKPGQSPQLLIYRVSNRFSGVPDRFSGSGSGTDFTLKISRVEAEDVGVYYCFQGSHVPYTFGQGTKLEIKRTVAAPSVFIFPPSDEQLKSGTASVVCLLNNFYPREAKVQWKVDNALQSGNSQESVTEQDSKDSTYSLSSTLTLSKADYEKHKVYACEVTHQGLSSPVTKSFNRGEC
# notes: also called antiIGF1R Heavy Chain-GS-CT01 adnectin
# B10: BPC1802 (bispecific antibody, human IgG1, kappa)
# heavy: not shown
# light: B9 light
# B11: anti-IGF-1R antibody H0L0 (antibody, human IgG1, kappa, V domains shown)
# VH: QVQLVQSGAEVKKPGASVKVSCKASGYTFTDYYMNWVRQAPGQGLEWMGNINPNNGGTNYNQKFKDRVTMTTDTSTSTAYMELRSLRSDDTAVYYCARWILYYGRSKWYFDVWGRGTLVTVSS
# VL: DIVMTQSPLSLPVTPGEPASISCRSSQSIVQSNGDTYLEWYLQKPGQSPQLLIYRVSNRFSGVPDRFSGSGSGTDFTLKISRVEAEDVGVYYCFQGSHVPYTFGQGTKLEIKR
# notes: also called HOLO
# B12: BPC1019 (antibody, human IgG1, kappa)
# heavy: not shown
# chain: not shown
# light: DIQMTQSPSSLSASVGDRVTITCKSSQSLLYTSSQKNYLAWYQQKPGKAPKLLIYWASTRESGVPSRFSGSGSGTDFTLTISSLQPEDFATYYCQQYYAYPWTFGQGTKVEIKRTVAAPSVFIFPPSDEQLKSGTASVVCLLNNFYPREAKVQWKVDNALQSGNSQESVTEQDSKDSTYSLSSTLTLSKADYEKHKVYACEVTHQGLSSPVTKSFNRGEC
# notes: monovalent antibody; also called anti cMET 5D5v2 knob-into-hole
# B13: BPC1401 (bispecific antibody, human IgG1, kappa)
# heavy: not shown
# light: QIVLSQSPAILSASPGEKVTMTCRASSSVSYIHWFQQKPGSSPKPWIYATSNLASGVPVRFSGSGSGTSYSLTISRVEAEDAATYYCQQWTSNPPTFGGGTKLEIKRTVAAPSVFIFPPSDEQLKSGTASVVCLLNNFYPREAKVQWKVDNALQSGNSQESVTEQDSKDSTYSLSSTLTLSKADYEKHKVYACEVTHQGLSSPVTKSFNRGEC
# B14: BPC1402 (bispecific antibody, human IgG1, kappa)
# heavy: not shown
# light: B13 light
# notes: also called RituxanH-GS-DOM474
# B15: BPC1020 (antibody, V domains shown)
# VH: EVQLVESGGGLVQPGGSLRLSCAASGYTFTSYWLHWVRQAPGKGLEWVGMIDPSNSDTRFNPNFKDRFTISADTSKNTAYLQMNSLRAEDTAVYYCATYRSYVTPLDYWGQGTLVTVSS
# VL: DIQMTQSPSSLSASVGDRVTITCKSSQSLLYTSSQKNYLAWYQQKPGKAPKLLIYWASTRESGVPSRFSGSGSGTDFTLTISSLQPEDFATYYCQQYYAYPWTFGQGTKVEIKR
# Experiments:
# [1] = target: T1, recombinant E. coli-expressed human IL-13 (human, UniProt P35225 35-146); assay: SPR, purified
# T1 construct: made and purified at GSK; also called Interleukin-13; rhIL-13
# [2] = target: T1, recombinant E. coli-expressed human …; assay: cell-based or functional assay
# [3] = target: T2, recombinant E. coli-expressed human IL-4 (human, UniProt P05112 25-153); assay: cell-based or functional assay
# T2 sequence: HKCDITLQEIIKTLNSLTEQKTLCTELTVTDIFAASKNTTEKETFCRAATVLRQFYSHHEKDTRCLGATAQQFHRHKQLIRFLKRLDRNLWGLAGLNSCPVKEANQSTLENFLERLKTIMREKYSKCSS
# [4] = target: T2, recombinant E. coli-expressed human IL-4; assay: ELISA, IL-4 binding to IL4Ralpha-Fc
# [5] = target: T1, recombinant E. coli-expressed human …; assay: SPR, human IL-4 bound first
# [6] = target: T1, recombinant E. coli-expressed human …; assay: SPR
# [7] = target: T1, recombinant E. coli-expressed human …; assay: SPR, no IL-4 bound
# [8] = target: T1, recombinant E. coli-expressed human …; assay: SPR; remark: listed apart in the source
# [9] = target: T3, recombinant E. coli-expressed cynomolgus IL-4 (cynomolgus, UniProt P79339 25-153); assay: SPR
# T3 construct: also called cyno IL-4
# T3 sequence (looked up): T2 sequence with E26K, V29I, F33L
# [10] = target: T4, recombinant E. coli-expressed cynomolgus IL-13 (cynomolgus, UniProt Q0PW92 21-132); assay: SPR
# T4 construct: also called cyno IL-13
# [11] = target: T1, recombinant E. coli-expressed human …; assay: SPR exp 3
# [12] = target: T2, recombinant E. coli-expressed human IL-4; assay: SPR
# [13] = target: T2, recombinant E. coli-expressed human IL-4; assay: SPR, poor curve fit
# [14] = target: T2, recombinant E. coli-expressed human IL-4; assay: SPR, purified
# [15] = target: T1, recombinant E. coli-expressed human …; assay: ELISA, supernatant
# [16] = target: T2, recombinant E. coli-expressed human IL-4; assay: ELISA, supernatant
# [17] = target: T1, recombinant E. coli-expressed human …; assay: SPR; remark: listed apart in the source
# [18] = target: T5, CD20 on CD20 positive cell line (Wein133) (UniProt P11836 1-297, limits assumed); assay: flow cytometry, Wein133 cells
# T5 construct: whole, on cells
# T5 sequence (looked up): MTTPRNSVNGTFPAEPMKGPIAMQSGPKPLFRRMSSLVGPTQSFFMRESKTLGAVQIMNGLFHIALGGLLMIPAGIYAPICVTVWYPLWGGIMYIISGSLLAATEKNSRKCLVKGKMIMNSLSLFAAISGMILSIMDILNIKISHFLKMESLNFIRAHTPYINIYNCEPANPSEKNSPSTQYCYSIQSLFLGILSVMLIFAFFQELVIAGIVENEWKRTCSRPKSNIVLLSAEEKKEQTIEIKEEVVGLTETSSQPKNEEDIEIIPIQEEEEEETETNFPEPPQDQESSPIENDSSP
# VEGF R2 (VEGF receptor) = target: T6, VEGF R2 (VEGF receptor) (human, UniProt P35968 20-764); assay: ELISA
# T6 construct: bought; construct not described
# recombinant human HER2 = target: T7, recombinant human HER2 (human, UniProt P04626 23-652, limits assumed); assay: ELISA
# T7 construct: bought
# recombinant human VEGF = target: T8, recombinant human VEGF (human, UniProt P15692-4 27-191); assay: ELISA
# T8 construct: also called VEGF165; hVEGF165
# [19] = target: T9, Recombinant Human HGF R (c-MET)/Fc Chimera (human, UniProt P08581 25-932); assay: ELISA
# T9 construct: bought; also called HGF receptor
# T9 sequence (P08581 25-932 limits assumed, change not shown): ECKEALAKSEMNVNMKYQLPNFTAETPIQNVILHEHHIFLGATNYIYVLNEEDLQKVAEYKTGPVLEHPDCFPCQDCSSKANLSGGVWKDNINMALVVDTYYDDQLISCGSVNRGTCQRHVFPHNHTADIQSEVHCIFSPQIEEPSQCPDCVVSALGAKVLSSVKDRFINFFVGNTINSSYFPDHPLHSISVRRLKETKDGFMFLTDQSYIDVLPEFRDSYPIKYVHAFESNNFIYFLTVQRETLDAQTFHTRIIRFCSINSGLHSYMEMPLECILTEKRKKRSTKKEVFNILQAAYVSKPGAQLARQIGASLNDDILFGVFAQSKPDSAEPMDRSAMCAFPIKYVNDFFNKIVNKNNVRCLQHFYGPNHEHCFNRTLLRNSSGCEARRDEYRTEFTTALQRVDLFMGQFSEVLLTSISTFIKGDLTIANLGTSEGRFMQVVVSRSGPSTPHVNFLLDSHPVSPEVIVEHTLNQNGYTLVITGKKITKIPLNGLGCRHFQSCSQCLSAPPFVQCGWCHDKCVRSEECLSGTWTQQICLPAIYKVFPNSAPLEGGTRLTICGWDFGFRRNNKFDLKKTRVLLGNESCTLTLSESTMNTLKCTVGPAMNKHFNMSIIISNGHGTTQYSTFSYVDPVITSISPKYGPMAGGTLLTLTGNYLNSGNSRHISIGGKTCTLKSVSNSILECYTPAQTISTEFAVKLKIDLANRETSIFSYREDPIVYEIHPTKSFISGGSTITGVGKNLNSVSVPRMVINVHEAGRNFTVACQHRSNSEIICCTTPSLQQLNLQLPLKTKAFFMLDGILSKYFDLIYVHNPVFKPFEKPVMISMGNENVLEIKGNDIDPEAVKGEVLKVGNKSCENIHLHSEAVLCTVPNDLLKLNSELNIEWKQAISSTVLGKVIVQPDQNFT
# T6 sequence (P35968 20-764 limits assumed): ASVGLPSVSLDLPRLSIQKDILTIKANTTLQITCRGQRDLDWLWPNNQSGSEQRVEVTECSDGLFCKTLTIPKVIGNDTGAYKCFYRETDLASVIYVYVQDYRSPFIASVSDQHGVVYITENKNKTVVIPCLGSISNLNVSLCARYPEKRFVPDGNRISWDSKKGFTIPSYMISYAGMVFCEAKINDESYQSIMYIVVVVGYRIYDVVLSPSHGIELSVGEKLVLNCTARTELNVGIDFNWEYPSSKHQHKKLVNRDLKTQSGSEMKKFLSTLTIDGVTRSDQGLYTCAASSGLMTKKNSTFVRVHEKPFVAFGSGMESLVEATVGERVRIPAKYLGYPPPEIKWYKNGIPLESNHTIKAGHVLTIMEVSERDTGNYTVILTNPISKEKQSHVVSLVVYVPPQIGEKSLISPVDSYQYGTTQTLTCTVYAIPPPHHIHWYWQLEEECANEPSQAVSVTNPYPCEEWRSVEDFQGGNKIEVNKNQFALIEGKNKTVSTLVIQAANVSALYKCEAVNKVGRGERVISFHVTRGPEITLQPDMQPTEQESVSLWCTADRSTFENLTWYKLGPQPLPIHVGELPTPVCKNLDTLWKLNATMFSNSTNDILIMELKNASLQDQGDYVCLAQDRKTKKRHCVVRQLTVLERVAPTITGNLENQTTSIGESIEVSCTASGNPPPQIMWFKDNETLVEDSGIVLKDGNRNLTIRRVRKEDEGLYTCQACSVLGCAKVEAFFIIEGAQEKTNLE
binder,measurement,setting,value
B1,Kd,[1],0.38 nM
same,Mean IC50 (whole blood phospho-STAT6),[2],2.68 nM
same,Mean IC50 (whole blood phospho-STAT6),[3],1.23 nM
same,IC50,[4],23.8 nM and 21 nM
same,Kd,[5],0.325 nM
same,koff,[5],0.000315 s⁻¹
same,kon,[5],968000 M⁻¹ s⁻¹
same,Kd,[6],0.4 nM
same,Kd,[7],0.381 nM
same,koff,[7],0.000347 s⁻¹
same,kon,[7],909000 M⁻¹ s⁻¹
B2,Kd,[8],0.562 nM
same,IC50,[4],19.2 nM
same,binding result,[9],binds
same,Kd,[10],0.058 nM
same,koff,[10],2.86e-05 s⁻¹
same,kon,[10],492000 M⁻¹ s⁻¹
same,Kd,[11],0.501 nM
B3,koff,[12],1.52e-05 s⁻¹
same,kon,[12],701000 M⁻¹ s⁻¹
same,Kd,[13],0.027 nM
same,Kd,[6],0.51 nM
B4,Kd,[1],0.38 nM
same,Kd,[14],1.1 nM
same,Kd,[12],0.95 nM
same,koff,[12],0.00012 s⁻¹
same,kon,[12],127000 M⁻¹ s⁻¹
same,Kd,[6],0.5 nM
B5,koff,[12],3.57e-06 s⁻¹
same,kon,[12],1.25e+06 M⁻¹ s⁻¹
same,Kd,[13],0.003 nM
same,Kd,[6],0.44 nM
B6,koff,[12],1.63e-06 s⁻¹
same,kon,[12],1.26e+06 M⁻¹ s⁻¹
same,Kd,[13],0.001 nM
same,Kd,[6],0.42 nM
B7,binding result,[15],binds
same,binding result,[16],binds
B8,Kd,[17],1.02 nM
same,koff,[17],0.000508 s⁻¹
same,kon,[17],499000 M⁻¹ s⁻¹
same,binding result,[18],binds
B9,binding result,VEGF R2 (VEGF receptor),binds
B10,binding result,VEGF R2 (VEGF receptor),binds
B11,binding result,recombinant human HER2,no binding
same,binding result,VEGF R2 (VEGF receptor),no binding
same,binding result,recombinant human VEGF,no binding
B12,binding result,[19],binds
same,binding result,recombinant human VEGF,no binding
B13,Kd,[17],0.313 nM
same,koff,[17],0.000182 s⁻¹
same,kon,[17],581000 M⁻¹ s⁻¹
same,binding result,[18],binds
B14,Kd,[17],0.358 nM
same,koff,[17],0.000305 s⁻¹
same,kon,[17],852000 M⁻¹ s⁻¹
same,binding result,[18],binds
B15,binding result,[19],binds
same,binding result,recombinant human VEGF,no binding
